Measured values from publication PMC4968227.

Molecular target: T1, PARK7, endogenous in SN4741 cells (mouse (endogenous in SN4741)), Q99LX0
T1 chain: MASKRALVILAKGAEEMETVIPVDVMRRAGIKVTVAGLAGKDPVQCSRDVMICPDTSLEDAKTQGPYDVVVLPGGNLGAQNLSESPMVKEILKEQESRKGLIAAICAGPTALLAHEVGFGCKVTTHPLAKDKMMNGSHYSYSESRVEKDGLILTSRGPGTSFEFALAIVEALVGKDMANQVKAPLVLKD
Assay: cross-linking
Details: remark: other sources report otherwise

stoichiometry N: 2
B1: PARK7, endogenous in SN4741 cells, Q99LX0 1-189 (natural protein)
chain: T1 chain
